In US20140329995A1 one finds Qb10 (dynamic binding capacity and Qb80 (dynamic binding capacity data, which are given here for one substance.

Assay [1] has as its target Gammanorm 165 mg/ml (Octapharma), human polyclonal IgG (human). In words: column breakthrough, ligand on agarose base matrix A, ligand density 14.5 mg/ml, residence time 2.4 min, 1 mg/ml IgG.
For assay [2] the target is unchanged. In words: column breakthrough, ligand on agarose base matrix A, ligand density 14.5 mg/ml, residence time 10.0 min, 1 mg/ml IgG.
The target is the same in assay [3]. In words: column breakthrough, ligand on agarose base matrix A, ligand density […], residence time 10.0 min, 1 mg/ml IgG.
Assay [4] shares this target. In words: column breakthrough, ligand on agarose base matrix A, ligand density […], residence time 6.0 min, 1 mg/ml IgG.
Assay [5] shares this target. In words: column breakthrough, ligand on agarose base matrix B, ligand density 11.3 mg/ml, residence time 2.4 min, 1 mg/ml IgG.
Assay [6] shares this target. As to the kind of experiment: column breakthrough, ligand on agarose base matrix A, ligand density 14.5 mg/ml, residence time 6.0 min, 1 mg/ml IgG.
Assay [7] shares this target. As to the kind of experiment: column breakthrough, ligand on agarose base matrix A, ligand density […], residence time 2.4 min, 1 mg/ml IgG.
The target is the same in assay [8]. In words: column breakthrough, ligand on agarose base matrix B, ligand density 11.3 mg/ml, residence time 6.0 min, 1 mg/ml IgG.

“Mutant Z(N23T)6: ligand hexamer containing six copies of protein Z, each containing the N23T substitution (designed binder)”: the Qb10 (dynamic binding capacity at 10% breakthrough) in assay [1] was found to be 31.2 mg/ml resin; in assay [2], 76.7 mg/ml resin; in assay [3] it was 64.5 mg/ml resin; in assay [4] it was 53.4 mg/ml resin; in assay [5], 47 mg/ml resin; in assay [6], 61.8 mg/ml resin. Further, the Qb10 (dynamic binding capacity at 10% breakthrough) in assay [7] turned out to be 35.1 mg/ml resin; in assay [8] it was 68 mg/ml resin. Also, the Qb80 (dynamic binding capacity at 80% breakthrough) came out at 80.6 mg/ml resin in assay [1]; 103 mg/ml resin in assay [2]; 74.5 mg/ml resin in assay [3]; 68.7 mg/ml resin in assay [4]; 76.9 mg/ml resin in assay [5]; 103 mg/ml resin in assay [6]. Besides, the Qb80 (dynamic binding capacity at 80% breakthrough) in assay [7] stood at 62.7 mg/ml resin; in assay [8], 82.8 mg/ml resin.
